The nature of this series: melting temperature; melt of duplexes. Particulars: sodium 0.0675 M; strand 1 µM.
Regarding “CGACGTGCTCAATGTGCTG+CAGCACATTGCGCACGTCG ((((((((.((((((((((+)))))))))).))))))))”, the Tm was found to be 56.6 °C.

Regarding “CGACGTGCCAGATGTGCTG+CAGCACATCATGCACGTCG ((((((((..(((((((((+)))))))))..))))))))”, the Tm amounted to 53.4 °C.

Consider “CGACGTGCCCAATGTGCTG+CAGCACATATAGCACGTCG ((((((((...((((((((+))))))))...))))))))”, for which the Tm turned out to be 48.5 °C.

Regarding “CGACGTGCTAAATGTGCTG+CAGCACATGGAGCACGTCG (((((((((..((((((((+))))))))..)))))))))”, the Tm is 54.5 °C.

For the substance “CGACGTGCCTCATGTGCTG+CAGCACATTTTGCACGTCG ((((((((...((((((((+))))))))...))))))))”, the Tm was found to be 46.6 °C.

Regarding “CGACGTGCACGATGTGCTG+CAGCACATCAGGCACGTCG ((((((((..(((((((((+)))))))))..))))))))”, the Tm worked out at 53.4 °C.

With “CGACGTGCGATATGTGCTG+CAGCACATCTTGCACGTCG ((((((((.(.((((((((+)))))))).).))))))))”, the Tm came to 51.2 °C.

On to “CGACGTGCCACATGTGCTG+CAGCACATGTTGCACGTCG ((((((((.((((((((((+)))))))))).))))))))”, for which the Tm turned out to be 57.4 °C.

As to “CGACGTGCTGCATGTGCTG+CAGCACATTACGCACGTCG ((((((((...((((((((+))))))))...))))))))”, the Tm was determined as 48.2 °C.

Consider “CGACGTGCCTCATGTGCTG+CAGCACATCCGGCACGTCG (((((((((..((((((((+))))))))..)))))))))”, for which the Tm was 51.2 °C.

For the substance “CGACGTGCCAAATGTGCTG+CAGCACATTATGCACGTCG ((((((((..(((((((((+)))))))))..))))))))”, the Tm was 51.2 °C.

On to “CGACGTGCCTTATGTGCTG+CAGCACATCTGGCACGTCG (((((((((..((((((((+))))))))..)))))))))”, for which the Tm stood at 53.7 °C.

Regarding “CGACGTGCGCCATGTGCTG+CAGCACATCCCGCACGTCG (((((((((..((((((((+))))))))..)))))))))”, the midpoint of thermal melting (Tm) worked out at 50.6 °C.

As to “CGACGTGCGGTATGTGCTG+CAGCACATCACGCACGTCG (((((((((..((((((((+))))))))..)))))))))”, the Tm is 56.7 °C.

Turning to “CGACGTGCGGTATGTGCTG+CAGCACATAGAGCACGTCG ((((((((..(((((((((+)))))))))..))))))))”, the Tm came to 56 °C.

For the substance “CGACGTGCTCCATGTGCTG+CAGCACATGAAGCACGTCG (((((((((.(((((((((+))))))))).)))))))))”, the Tm worked out at 57.4 °C.

On to “CGACGTGCTCTATGTGCTG+CAGCACATAACGCACGTCG ((((((((..(((((((((+)))))))))..))))))))”, for which the Tm was determined as 49.7 °C.

Turning to “CGACGTGCAAAATGTGCTG+CAGCACATCTTGCACGTCG ((((((((((.((((((((+)))))))).))))))))))”, the Tm amounted to 54 °C.

Regarding “CGACGTGCAGAATGTGCTG+CAGCACATCGTGCACGTCG (((((((((..((((((((+))))))))..)))))))))”, the Tm came to 49 °C.

On to “CGACGTGCCAGATGTGCTG+CAGCACATTAAGCACGTCG ((((((((...((((((((+))))))))...))))))))”, for which the Tm is 50.7 °C.

Consider “CGACGTGCGGAATGTGCTG+CAGCACATGGCGCACGTCG (((((((((..((((((((+))))))))..)))))))))”, for which the Tm worked out at 58.4 °C.

Consider “CGACGTGCGCGATGTGCTG+CAGCACATGGAGCACGTCG ((((((((.(.((((((((+)))))))).).))))))))”, for which the Tm was found to be 56 °C.

“CGACGTGCGCCATGTGCTG+CAGCACATGAAGCACGTCG ((((((((..(((((((((+)))))))))..))))))))”: the Tm amounted to 57.1 °C.

For “CGACGTGCAAGATGTGCTG+CAGCACATCCGGCACGTCG ((((((((..(((((((((+)))))))))..))))))))”, the Tm was 54.9 °C.

As for “CGACGTGCTGCATGTGCTG+CAGCACATTGGGCACGTCG ((((((((...((((((((+))))))))...))))))))”, the Tm was 50.1 °C.

As for “CGACGTGCTACATGTGCTG+CAGCACATTCCGCACGTCG ((((((((...((((((((+))))))))...))))))))”, the Tm was determined as 47.2 °C.

Consider “CGACGTGCTGGATGTGCTG+CAGCACATACTGCACGTCG ((((((((.(.((((((((+)))))))).).))))))))”, for which the Tm was determined as 56.3 °C.

Take “CGACGTGCACGATGTGCTG+CAGCACATCTCGCACGTCG ((((((((..(((((((((+)))))))))..))))))))”: the Tm was 50.6 °C.

In the case of “CGACGTGCTACATGTGCTG+CAGCACATAGTGCACGTCG ((((((((...((((((((+))))))))...))))))))”, the Tm was determined as 48.1 °C.

For the substance “CGACGTGCCGCATGTGCTG+CAGCACATTCTGCACGTCG ((((((((.(.((((((((+)))))))).).))))))))”, the Tm was found to be 48.8 °C.

Regarding “CGACGTGCATGATGTGCTG+CAGCACATAAGGCACGTCG ((((((((.(.((((((((+)))))))).).))))))))”, the Tm turned out to be 52.8 °C.

In the case of “CGACGTGCCCAATGTGCTG+CAGCACATGTGGCACGTCG (((((((((..((((((((+))))))))..)))))))))”, the Tm worked out at 56.2 °C.

With “CGACGTGCATTATGTGCTG+CAGCACATAGAGCACGTCG ((((((((..(((((((((+)))))))))..))))))))”, the Tm amounted to 51.2 °C.

Turning to “CGACGTGCCTGATGTGCTG+CAGCACATACTGCACGTCG ((((((((...((((((((+))))))))...))))))))”, the Tm was found to be 48.4 °C.

Take “CGACGTGCCAAATGTGCTG+CAGCACATATCGCACGTCG ((((((((.(.((((((((+)))))))).).))))))))”: the Tm stood at 47.2 °C.

On to “CGACGTGCTATATGTGCTG+CAGCACATGGGGCACGTCG ((((((((...((((((((+))))))))...))))))))”, for which the Tm amounted to 51 °C.

In the case of “CGACGTGCTCTATGTGCTG+CAGCACATACAGCACGTCG (((((((((.(((((((((+))))))))).)))))))))”, the Tm came to 52.5 °C.

With “CGACGTGCTATATGTGCTG+CAGCACATGTTGCACGTCG ((((((((.(.((((((((+)))))))).).))))))))”, the Tm is 52.6 °C.

For the substance “CGACGTGCTGTATGTGCTG+CAGCACATAGCGCACGTCG ((((((((..(((((((((+)))))))))..))))))))”, the Tm was found to be 49.9 °C.

As for “CGACGTGCGTCATGTGCTG+CAGCACATTTGGCACGTCG ((((((((...((((((((+))))))))...))))))))”, the Tm was found to be 48.7 °C.

For “CGACGTGCCCTATGTGCTG+CAGCACATAGAGCACGTCG ((((((((.((((((((((+)))))))))).))))))))”, the Tm turned out to be 55.6 °C.

Consider “CGACGTGCTCCATGTGCTG+CAGCACATTCGGCACGTCG ((((((((...((((((((+))))))))...))))))))”, for which the Tm was found to be 47.6 °C.

Turning to “CGACGTGCCGCATGTGCTG+CAGCACATAATGCACGTCG ((((((((...((((((((+))))))))...))))))))”, the Tm turned out to be 47.9 °C.

As for “CGACGTGCCATATGTGCTG+CAGCACATAAAGCACGTCG ((((((((..(((((((((+)))))))))..))))))))”, the Tm was found to be 51.3 °C.

With “CGACGTGCTCGATGTGCTG+CAGCACATGAAGCACGTCG (((((((((..((((((((+))))))))..)))))))))”, the Tm was determined as 52.8 °C.

Turning to “CGACGTGCGTAATGTGCTG+CAGCACATTCAGCACGTCG ((((((((..(((((((((+)))))))))..))))))))”, the Tm worked out at 54.7 °C.

As to “CGACGTGCCGGATGTGCTG+CAGCACATAACGCACGTCG ((((((((...((((((((+))))))))...))))))))”, the Tm stood at 50 °C.

“CGACGTGCGGGATGTGCTG+CAGCACATTAGGCACGTCG ((((((((...((((((((+))))))))...))))))))”: the Tm came out at 51.9 °C.

As to “CGACGTGCGAGATGTGCTG+CAGCACATTGTGCACGTCG ((((((((...((((((((+))))))))...))))))))”, the Tm is 49.7 °C.

With “CGACGTGCACTATGTGCTG+CAGCACATATTGCACGTCG (((((((((.(((((((((+))))))))).)))))))))”, the Tm was 51.5 °C.

With “CGACGTGCTTGATGTGCTG+CAGCACATTCCGCACGTCG ((((((((...((((((((+))))))))...))))))))”, the Tm was found to be 48.5 °C.

For the substance “CGACGTGCGACATGTGCTG+CAGCACATCATGCACGTCG ((((((((...((((((((+))))))))...))))))))”, the Tm turned out to be 49.1 °C.

In the case of “CGACGTGCACAATGTGCTG+CAGCACATAAGGCACGTCG ((((((((...((((((((+))))))))...))))))))”, the Tm came out at 46.8 °C.

With “CGACGTGCGTGATGTGCTG+CAGCACATGCTGCACGTCG ((((((((...((((((((+))))))))...))))))))”, the Tm is 49.8 °C.

On to “CGACGTGCGTTATGTGCTG+CAGCACATACTGCACGTCG ((((((((..(((((((((+)))))))))..))))))))”, for which the Tm was determined as 51.6 °C.

Regarding “CGACGTGCACGATGTGCTG+CAGCACATAGGGCACGTCG ((((((((.(.((((((((+)))))))).).))))))))”, the Tm worked out at 54.9 °C.

In the case of “CGACGTGCATTATGTGCTG+CAGCACATCATGCACGTCG ((((((((((.((((((((+)))))))).))))))))))”, the Tm worked out at 54.1 °C.

For “CGACGTGCTCGATGTGCTG+CAGCACATGCTGCACGTCG ((((((((...((((((((+))))))))...))))))))”, the Tm amounted to 47 °C.

On to “CGACGTGCGAGATGTGCTG+CAGCACATAGTGCACGTCG ((((((((...((((((((+))))))))...))))))))”, for which the Tm was 47.6 °C.

In the case of “CGACGTGCCGCATGTGCTG+CAGCACATCAGGCACGTCG (((((((((..((((((((+))))))))..)))))))))”, the Tm worked out at 55.5 °C.

Regarding “CGACGTGCATCATGTGCTG+CAGCACATTAAGCACGTCG ((((((((.(.((((((((+)))))))).).))))))))”, the melting temperature (Tm) amounted to 48.6 °C.

Take “CGACGTGCACCATGTGCTG+CAGCACATGGAGCACGTCG ((((((((.((((((((((+)))))))))).))))))))”: the Tm amounted to 58.8 °C.

“CGACGTGCTCCATGTGCTG+CAGCACATCCGGCACGTCG ((((((((...((((((((+))))))))...))))))))”: the Tm came to 47.7 °C.

Regarding “CGACGTGCTCCATGTGCTG+CAGCACATAGAGCACGTCG ((((((((((.((((((((+)))))))).))))))))))”, the Tm is 56.2 °C.

As to “CGACGTGCAGGATGTGCTG+CAGCACATTAAGCACGTCG ((((((((...((((((((+))))))))...))))))))”, the Tm worked out at 50.7 °C.

As to “CGACGTGCTCAATGTGCTG+CAGCACATCACGCACGTCG ((((((((...((((((((+))))))))...))))))))”, the melting temperature (Tm) was 48.1 °C.

The values are drawn from the array DNA melting data of Ke et al..
